Data from patent publication US8247195.

Target: H-NS (Salmonella enterica serovar Typhimurium 14028s) (UniProt A0A0F6B244)
Details: ChIP/Q-PCR, formaldehyde crosslinked, anti-HA; value given as example of copies recovered per marA copy

UniProt A0A0F6B244, sequence (A0A0F6B244 whole entry): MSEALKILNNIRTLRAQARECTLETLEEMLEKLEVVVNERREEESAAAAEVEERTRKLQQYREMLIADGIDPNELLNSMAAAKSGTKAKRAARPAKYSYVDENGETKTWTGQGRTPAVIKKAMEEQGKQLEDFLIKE

For proV, the binding signal (fold enrichment vs marA) was 53.6.
